# According to patent US20230056252A1 (Gilead, published 2023):
# Changes are numbered by the printed parent chain.
# B1: hPGT121.66 AAS + W/huSP34.3.8 scFv AAS + SAV + R (bispecific antibody, human IgG1, lambda, L234A L235A)
# chain: EVQLVESGGGLVQPGGSLRLSCAASGFTFNTYAMNWVRQAPGKGLEWVGRIRSKYNNYATYYADSVKGRFTISRDDSKNSLYLQMNSLRTEDTAVYYCVRHGNFGHSYVSWFAYWGQGTLVTVSSGGGGSGGGGSGGGGSGGGGSQAVVTQEPSLTVSPGGTVTLTCGSSTGAVTTGHYANWVQQKPGQAPRGLIGGTNKRAPGVPARFSGSLLGGKAALTISGAQPEDEAEYYCALWYSNRWVFGGGTKLTVLEPKSSDKTHTCPPCPAPEAAGGPSVFLFPPKPKDTLMISRTPEVTCVVVDVSHEDPEVKFNWYVDGVEVHNAKTKPREEQYNSTYRVVSVLTVLHQDWLNGKEYKCKVSNKALPASIEKTISKAKGQPREPQVYTLPPSREEMTKNQVSLSCAVKGFYPSDIAVEWESNGQPENNYKTTPPVLDSDGSFFLVSKLTVDKSRWQQGNVFSCSVMHEALHNRYTQKSLSLSPGK
# heavy: QMQLQESGPGLVKPSETLSLTCSVSGASISDSYWSWIRRSPGKGLEWIGYVHKSGDTNYNPSLKSRVHLSLDTSKNQVSLSLTGVTAADSGKYYCARTLHGRRIYGIVAFNEWFTYFYMDVWGTGTQVTVSSASTKGPSVFPLAPSSKSTSGGTAALGCLVKDYFPEPVTVSWNSGALTSGVHTFPAVLQSSGLYSLSSVVTVPSSSLGTQTYICNVNHKPSNTKVDKKVEPKSCDKTHTCPPCPAPEAAGGPSVFLFPPKPKDTLMISRTPEVTCVVVDVSHEDPEVKFNWYVDGVEVHNAKTKPREEQYNSTYRVVSVLTVLHQDWLNGKEYKCKVSNKALPASIEKTISKAKGQPREPQVYTLPPSREEMTKNQVSLWCLVKGFYPSDIAVEWESNGQPENNYKTTPPVLDSDGSFFLYSKLTVDKSRWQQGNVFSCSVMHEALHNHYTQKSLSLSPGK
# light: not shown
# B2: hPGT121.66 AAS + W/huSP34.3.13scFv AAS + SAV + R (bispecific antibody, human IgG1, lambda, L234A L235A)
# chain: B1 chain with N199S, K200N
# heavy: B1 heavy
# light: not shown
# B3: hPGT121.66 AAS + W/huSP34.13.8 scFv AAS + SAV + R (bispecific antibody, human IgG1, lambda, L234A L235A)
# chain: B1 chain with N30S, D64A, S80T
# heavy: B1 heavy
# light: not shown
# notes: also called 261
# B4: hPGT121.66 AAS + W/huSP34.34.3 scFv AAS + SAV + R (bispecific antibody, human IgG1, lambda, L234A L235A)
# chain: not shown
# heavy: B1 heavy
# light: not shown
# B5: huSP34.13.9 Fab-HF (Fab, V domains shown)
# VH: EVQLVESGGGLVQPGGSLRLSCAASGFTFSTYAMNWVRQAPGKGLEWVGRIRSKYNNYATYYAASVKGRFTISRDDSKNTLYLQMNSLRTEDTAVYYCVRHGNFGHSYVSWFAYWGQGTLVTVSS
# VL: QAVVTQPPSLTVSPGGTVTLTCGSSTGAVTTGHYANWVQQKPGQAPRGLIGGTNKRAPGVPARFSGSLSGGKAALTISGAQPEDEAEYYCALWYSNLWVFGGGTKLTVL
# B6: huSP34.11.9 Fab-HF (Fab, V domains shown)
# VH: B5 VH with T80S
# VL: B5 VL
# B7: huSP34.12.9 Fab-HF (Fab, V domains shown)
# VH: B5 VH with G49A, T80S
# VL: B5 VL
# B8: huSP34.13.7 Fab-HF (Fab, V domains shown)
# VH: B5 VH
# VL: B5 VL with P7E, G23R, S69L
# B9: huSP34.12.7 Fab-HF (Fab, V domains shown)
# VH: B5 VH with G49A, T80S
# VL: B5 VL with P7E, G23R, S69L
# B10: huSP34.11.10 Fab-HF (Fab, V domains shown)
# VH: B5 VH with T80S
# VL: B5 VL with L97R
# B11: huSP34.12.10 Fab-HF (Fab, V domains shown)
# VH: B5 VH with G49A, T80S
# VL: B5 VL with L97R
# B12: huSP34.12.8 Fab-HF (Fab, V domains shown)
# VH: B5 VH with G49A, T80S
# VL: B5 VL with P7E, S69L, L97R
# B13: huSP34.2.1 Fab-HF (Fab, V domains shown)
# VH: B5 VH with T80S, R89K, V95M, H106N, Y114V
# VL: B5 VL with P7E, G23R, G32S, H33N, G59W, V60T, S69I, G71D, I77L
# B14: huSP34.4.6 Fab-HF (Fab, V domains shown)
# VH: B5 VH with T80S, Y114V
# VL: B5 VL with N54S, K55N, N96A, L97R
# B15: huSP34.3.1 Fab-HF (Fab, V domains shown)
# VH: B5 VH with S30N, A64D, T80S
# VL: B5 VL with P7E, G23R, G32S, H33N, G59W, V60T, S69I, G71D, I77L
# B16: huSP34.4.1 Fab-HF (Fab, V domains shown)
# VH: B5 VH with T80S, Y114V
# VL: B5 VL with P7E, G23R, G32S, H33N, G59W, V60T, S69I, G71D, I77L
# B17: huSP34.3.5 Fab-HF (Fab, V domains shown)
# VH: B5 VH with S30N, A64D, T80S
# VL: B5 VL with P7E, N54S, K55N, G59W, V60T, S69L, I77L, N96A, L97R
# B18: huSP34.2.6 Fab-HF (Fab, V domains shown)
# VH: B5 VH with T80S, R89K, V95M, H106N, Y114V
# VL: B5 VL with N54S, K55N, N96A, L97R
# B19: huSP34.2.2 Fab-HF (Fab, V domains shown)
# VH: B5 VH with T80S, R89K, V95M, H106N, Y114V
# VL: B5 VL with P7E, G32S, H33N, N54S, K55N, G59W, V60T, S69L, I77L
# B20: huSP34.3.2 Fab-HF (Fab, V domains shown)
# VH: B5 VH with S30N, A64D, T80S
# VL: B5 VL with P7E, G32S, H33N, N54S, K55N, G59W, V60T, S69L, I77L
# B21: mSP34 Fab-HF (Fab, V domains shown)
# VH: EVKLLESGGGLVQPKGSLKLSCAASGFTFNTYAMNWVRQAPGKGLEWVARIRSKYNNYATYYADSVKDRFTISRDDSQSILYLQMNNLKTEDTAMYYCVRHGNFGNSYVSWFAYWGQGTLVTVSA
# VL: QAVVTQESALTTSPGETVTLTCRSSTGAVTTSNYANWVQEKPDHLFTGLIGGTNKRAPGVPARFSGSLIGDKAALTITGAQTEDEAIYFCALWYSNLWVFGGGTKLTVLG
# notes: also called mSP34 chimeric Fab
# Biological target: CD3 on rhesus monkey T cells in PBMCs (rhesus monkey)
# Sequence (P16003 26-458): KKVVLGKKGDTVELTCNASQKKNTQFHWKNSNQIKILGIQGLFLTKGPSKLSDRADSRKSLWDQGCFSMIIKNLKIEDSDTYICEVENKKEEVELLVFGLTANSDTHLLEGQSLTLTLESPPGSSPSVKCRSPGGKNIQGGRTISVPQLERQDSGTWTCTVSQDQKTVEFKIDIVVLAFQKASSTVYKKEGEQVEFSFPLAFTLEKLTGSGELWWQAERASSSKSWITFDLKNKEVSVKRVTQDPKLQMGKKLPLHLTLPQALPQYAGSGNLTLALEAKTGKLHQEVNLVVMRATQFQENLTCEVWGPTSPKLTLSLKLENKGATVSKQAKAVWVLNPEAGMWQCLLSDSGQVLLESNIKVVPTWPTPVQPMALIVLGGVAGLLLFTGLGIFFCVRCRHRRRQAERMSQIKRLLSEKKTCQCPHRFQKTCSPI
# Test: flow cytometry on PBMCs, % anti-huIgG+ CD8+ cells, donor rh 3483
row,Binder,EC50
1,B1,0.04 µg/mL
2,B2,0.11 µg/mL
3,B3,0.13 µg/mL
4,B4,2.35 µg/mL

# Biological target: CD3 on rhesus monkey T cells in PBMCs (rhesus monkey)
# Test: flow cytometry on PBMCs, % anti-huIgG+ CD4+ cells, donor rh 3563
row,Binder,EC50
1,B1,0.02 µg/mL
2,B2,0.08 µg/mL
3,B3,0.07 µg/mL
4,B4,1.48 µg/mL

# Biological target: T1, CD3 expressed on cell-surface of primary human T cells (human, UniProt P07766 23-207; P04234 22-171)
# T1 construct: also called cell-surface CD3; human CD3
# T1 sequence (P07766 23-207 limits assumed, chain 1 of 2): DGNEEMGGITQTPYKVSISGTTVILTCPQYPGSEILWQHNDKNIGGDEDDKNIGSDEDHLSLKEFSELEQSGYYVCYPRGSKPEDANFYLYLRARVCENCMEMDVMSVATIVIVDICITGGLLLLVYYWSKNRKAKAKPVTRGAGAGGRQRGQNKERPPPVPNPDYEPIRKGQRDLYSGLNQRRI
# T1 sequence (P04234 22-171 limits assumed, chain 2 of 2): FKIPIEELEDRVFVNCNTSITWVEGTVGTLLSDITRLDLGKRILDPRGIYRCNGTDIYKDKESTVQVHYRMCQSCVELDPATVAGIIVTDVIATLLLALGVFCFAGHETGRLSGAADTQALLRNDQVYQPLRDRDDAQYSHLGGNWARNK
# Test: flow cytometry competition vs murine SP34-AF488 on human T cells, n = 1
# Experimental: (§1) Binding of humanized SP34 Fab variants to CD3 expressed on cell-surface of primary human T cells was evaluated in a flow cytometry-based competition assay.
# (§2) A second round of huSP34 Fab variants were characterized using the same flow cytometry-based competition assay as described above.
row,Binder,IC50
1,B5,0.48 µg/mL
2,B6,0.57 µg/mL
3,B7,0.97 µg/mL
4,B8,0.43 µg/mL
5,B9,0.77 µg/mL
6,B10,0.35 µg/mL
7,B11,0.69 µg/mL
8,B12,0.57 µg/mL

# Biological target: CD3 on rhesus monkey T cells in PBMCs (rhesus monkey)
# Test: flow cytometry on PBMCs, % anti-huIgG+ CD8+ cells, donor rh 3563
row,Binder,EC50
1,B1,0.08 µg/mL
2,B2,0.21 µg/mL
3,B3,0.2 µg/mL
4,B4,3.52 µg/mL

# Biological target: T1, CD3 expressed on cell-surface of …
# Test: flow cytometry competition vs murine SP34-AF488 on human T cells, n = 2
# Experimental: as §1, §2
row,Binder,IC50
1,B5,0.25 µg/mL
2,B6,0.22 µg/mL
3,B7,0.49 µg/mL
4,B8,0.18 µg/mL
5,B9,0.39 µg/mL
6,B10,0.15 µg/mL
7,B11,0.33 µg/mL
8,B12,0.29 µg/mL

# Biological target: T1, CD3 expressed on cell-surface of …
# Test: as above
# Remark: another data set of the same source
# Experimental: as §1
row,Binder,IC50
1,B13,3.68 µg/mL
2,B14,4.2 µg/mL
3,B15,2.22 µg/mL
4,B16,5.9 µg/mL
5,B17,10 µg/mL
6,B18,3.4 µg/mL
7,B19,16.6 µg/mL
8,B20,6.44 µg/mL

# Biological target: T1, CD3 expressed on cell-surface of …
# Test: flow cytometry on PBMCs, % anti-huIgG+ CD8+ cells, donor hu 340
# Experimental: (§3) Briefly, PBMCs from healthy human donors and healthy rhesus or cynomolgus monkey donors were incubated with different concentrations of HIV×CD3 bispecific molecules for 1 hour at RT. […] Cells were then washed, fixed/permeabilized, and analyzed on BD LSRFortessa. The percentage of α-huIgG-APC-positive CD4+ and CD8+ T cells and the mFI of the α-huIgG-APC of CD4+ and CD8+ cells were collected, and data analyzed using GraphPad Prism.
row,Binder,EC50
1,B1,0.06 µg/mL
2,B2,0.14 µg/mL
3,B3,0.1 µg/mL
4,B4,1.21 µg/mL

# Biological target: T1, CD3 expressed on cell-surface of …
# Test: flow cytometry on PBMCs, % anti-huIgG+ CD4+ cells, donor hu 151
row,Binder,EC50
1,B1,0.03 µg/mL
2,B2,0.07 µg/mL
3,B3,0.06 µg/mL
4,B4,1.41 µg/mL

# Biological target: T1, CD3 expressed on cell-surface of …
# Test: flow cytometry competition vs murine SP34-AF488 on human T cells, average
# Experimental: as §1
row,Binder,IC50
1,B21,0.7 µg/mL
2,B13,4.92 µg/mL
3,B14,11.4 µg/mL
4,B15,2.89 µg/mL
5,B16,7.74 µg/mL
6,B17,11.4 µg/mL
7,B18,4.04 µg/mL
8,B19,16.6 µg/mL
9,B20,9.19 µg/mL

# Biological target: CD3 on rhesus monkey T cells in PBMCs (rhesus monkey)
# Test: flow cytometry on PBMCs, % anti-huIgG+ CD4+ cells, donor rh 3483
row,Binder,EC50
1,B1,0.02 µg/mL
2,B2,0.06 µg/mL
3,B3,0.07 µg/mL
4,B4,0.93 µg/mL

# Biological target: T1, CD3 expressed on cell-surface of …
# Test: flow cytometry competition vs murine SP34-AF488 on human T cells, n = 1
# Remark: another data set of the same source
# Experimental: as §1
row,Binder,IC50
1,B13,6.17 µg/mL
2,B14,18.5 µg/mL
3,B15,3.56 µg/mL
4,B16,9.57 µg/mL
5,B17,12.9 µg/mL
6,B18,4.68 µg/mL
7,B19,> 20 µg/mL
8,B20,11.9 µg/mL

# Biological target: T1, CD3 expressed on cell-surface of …
# Test: flow cytometry competition vs murine SP34-AF488 on human T cells, average
# Remark: another data set of the same source
# Experimental: as §1, §2
row,Binder,IC50
1,B21,0.68 µg/mL
2,B5,0.36 µg/mL
3,B6,0.4 µg/mL
4,B7,0.73 µg/mL
5,B8,0.31 µg/mL
6,B9,0.58 µg/mL
7,B10,0.25 µg/mL
8,B11,0.51 µg/mL
9,B12,0.43 µg/mL

# Biological target: T1, CD3 expressed on cell-surface of …
# Test: flow cytometry on PBMCs, % anti-huIgG+ CD4+ cells, donor hu 340
# Experimental: as §3
row,Binder,EC50
1,B1,0.05 µg/mL
2,B2,0.1 µg/mL
3,B3,0.07 µg/mL
4,B4,1.64 µg/mL

# Biological target: T1, CD3 expressed on cell-surface of …
# Test: flow cytometry on PBMCs, % anti-huIgG+ CD8+ cells, donor hu 151
# Experimental: as §3
row,Binder,EC50
1,B1,0.04 µg/mL
2,B2,0.09 µg/mL
3,B3,0.08 µg/mL
4,B4,1.62 µg/mL
